Data published in patent US12514920B1, “Respiratory syncytial virus mRNA vaccine, and preparation method therefor and use thereof” (Hangzhou Tianlong Pharmaceutical Co., Ltd., priority 2024, dated 2026).
Numbering of substitutions follows the chain as printed.

B1: YK-RSV-004 (protein)
chain: QNITEEFYQSTCSAVSKGYLGALRTGWYTSVITIELSNIKENKCNGTDAKVKLIKQELDKYKNAVTDLQLLMQSTPATGSGSAICSGVAVCKVLHLEGEVNKIKSALLSTNKAVVSLSNGVSVLTIKVLDLKNYIDKQLLPIVNKQSCPISNIETVIEFQQKNNRLLEITREFSVNAGVTTPVSTYMLTNSELLSLINDMPITNDQKKLMSNNVQIVRQQSYSIMCIIKEEVLAYVVQLPLYGVIDTPCWKLHTSPLCTTNTKEGSNICLTRTDRGWYCDNAGSVSFFPQAETCKVQSNRVFCDTMNSRTLPSEVNLCNVDIFNPKYDCKIMTSKTDVSSSVITSLGAIVSCYGKTKCTASNKNRGIIKTFSNGCDYVSNKGVDTVSVGNTLYCVNKQEGQSLYVKGEPIINFYDPLVFPSSEFDASISQVNEKINQSLAFIRKSDELLHNVNAGKSTTNIMITTIIIVIIVILLSLIAVGLLLY
B2: YK-RSV-013 (protein)
chain: B1 chain with T78C, I84C, C85A, C91S, I126F, P149S, S151P, C226S
B3: YK-RSV-019 (protein)
chain: B1 chain with S30C, C91S, L124C, I126F, P149S, S151P, T155I, C226S
B4: YK-RSV-008 (protein)
chain: B1 chain with S30C, C85A, C91S, L124C, P149S, S151P, C226S, C394Y
B5: YK-RSV-016 (protein)
chain: B1 chain with Q9C, T33L, C91S, I126F, P149S, S151P, C226S, G407C
B6: YK-RSV-029 (protein)
chain: QNICEEFYQSTCSAVSKGYLGALRTGWYTSVITIELSNIKENKCNGTDAKVKLIKQELDKYKNAVTDLQLLMQSTPATGSGSAIASGVAVSKVLHLEGEVNKIKSALLSTNKAVVSLSNGVSVLTFKVLDLKNYIDKQLLPILNKQSCSIPNIETVIEFQQKNNRLLEITREFSVNAGVTTPVSTYMLTNSELLSLINDMPITNDQKKLMSNNVQIVRQQSYSIMSIIKEEVLAYVVQLPLYGVIDTPCWKLHTSPLCTTNTKEGSNICLTRTDRGWYCDNAGSVSFFPQAETCKVQSNRVFCDTMNSRTLPSEVNLCNVDIFNPKYDCKIMTSKTDVSSSVITSLGAIVSCYGKTKCTASNKNRGIIKTFSNGCDYVSNKGVDTVSVGNTLYYVNKQEGCSLYVKGEPIINFYDPLVFPSDEFDASISQVNEKINQSLAFIRKSDELLHNVNAGKSTTNIMITTIIIVIIVILLSLIAVGLLLY
B7: YK-RSV-034 (protein)
chain: B6 chain with Q1C, C4T, K397C, C401Q
B8: YK-RSV-032 (protein)
chain: B6 chain with C4T, Q9C, C401Q, K406C

tested on: RSV pre-F antibody (3C12); test: not given; format: physicochemical; conditions: high osmotic pressure 3000 mM, room temperature, 60 min; ELISA binding to 3C12
From the text: To investigate the stability of the RSV F antigen mutants under different pH, temperature, osmotic pressure and other conditions, the mutants were subjected to stress tests under different treatment conditions in this example.
• 293T cells (purchased from ATCC cell bank); • Primary antibody: RSV pre-F antibody (3C12), epitope Φ (purchased from Suzhou Novoprotein Scientific Co., Ltd. (hereinafter referred to as Novoprotein), Cat. No.: DA101); • Standard: RSV pre-F trimer protein (Novoprotein, Cat. No.: DRA230); • Secondary antibody: peroxidase AffiniPure goat anti-human IgG (H+L) (purchased from Yeasen Biotechnology (Shanghai) Co., Ltd. (hereinafter referred to as Yeasen), Cat. No.: N/A); • Experimental group: mRNA vaccines after screening in Example 4;
Coating: A 96-well microplate was coated with a working solution and incubated at 2 to 8° C. for 16 to 20 h.
Plate washing: Phosphate buffered saline PBST was added to each well, and the plate was washed 5 times using a plate washer and patted dry on absorbent paper.
Blocking: After a blocking solution was added, the […] were placed on a constant temperature microplate shaker and incubated at 400 rpm for 1.5 h at 37° C.
Plate washing: PBST was added to each well, and the plate was washed 5 times using a plate washer and patted dry on absorbent paper.
Primary antibody incubation: A primary antibody dilution was added to each well, and the plate was sealed with a sealing film, and then incubated at 400 rpm for 1.5 h at 37° C.
Secondary antibody incubation: A secondary antibody dilution was added to each well, and the plate was sealed with a sealing film, and then incubated at 400 rpm for 45 min at 37° C.
Color development: A chromogenic solution was added, and the plate was sealed with a sealing film, and then placed on a constant temperature microplate shaker and incubated at 400 rpm for 25 min at 37° C.
Reaction stopping: After the color development was completed, a stop buffer was added at […] to the microplate to stop the reaction.
Plate reading: Absorbance values (OD values) were read within 5 min using a multimode microplate reader, with dual wavelengths of 450 nm and 630 nm set.
In this example, stability screening of the mutants through different treatment conditions was defined as a stress test, including storage at 4° C. for one week; incubation at 50° C. for 60 min; treatment at room temperature under low osmotic pressure and high osmotic pressure conditions for 60 min; treatment at room temperature under acid and base conditions for 60 min. The binding of the mutants to the RSV pre-F antibody (3C12) recognizing the epitope Φ was detected by ELISA.

Point of comparison: B2, “Stress resistance parameter, Osmotic pressure (mM) 3000” value 0.43 ± 0.04. Against it:
- B1 — within error, 0.46 ± 0.13
- B3 — higher, 0.63 ± 0.04
- B4 — lower, 0.33 ± 0.02
- B5 — within error, 0.53 ± 0.07
- B6 — within error, 0.40 ± 0.01
- B7 — within error, 0.34 ± 0.15
- B8 — within error, 0.37 ± 0.02

same assay, conditions: incubation at 50° C. for 60 min; ELISA binding to 3C12

Point of comparison: B2, “Stress resistance parameter, Temperature (° C.) 50” value 0.91 ± 0.23. Against it:
- B1 — lower, 0.48 ± 0.05
- B3 — lower, 0.58 ± 0.05
- B4 — lower, 0.45 ± 0.08
- B5 — within error, 0.80 ± 0.01
- B6 — lower, 0.57 ± 0.08
- B7 — within error, 0.68 ± 0.07
- B8 — within error, 0.78 ± 0.02

same assay, conditions: low osmotic pressure 10 mM, room temperature, 60 min; ELISA binding to 3C12

Point of comparison: B6, “Stress resistance parameter, Osmotic pressure (mM) 10” value 0.61 ± 0.05. Against it:
- B1 — higher, 0.91 ± 0.23
- B2 — within error, 0.59 ± 0.08
- B3 — higher, 0.81 ± 0.04
- B4 — higher, 0.81 ± 0.09
- B5 — higher, 0.77 ± 0.08
- B7 — higher, 0.84 ± 0.14
- B8 — within error, 0.66 ± 0.14

same assay, conditions: pH 3.5, room temperature, 60 min; ELISA binding to 3C12

Point of comparison: B8, “Stress resistance parameter, pH 3.5” value 1.01 ± 0.35. Against it:
- B1 — within error, 0.97 ± 0.21
- B2 — within error, 0.84 ± 0.19
- B3 — within error, 0.77 ± 0.05
- B4 — within error, 0.76 ± 0.21
- B5 — within error, 0.91 ± 0.06
- B6 — within error, 0.63 ± 0.03
- B7 — within error, 0.81 ± 0.09

same assay, conditions: pH 10, room temperature, 60 min; ELISA binding to 3C12

Point of comparison: B2, “Stress resistance parameter, pH 10” value 0.92 ± 0.04. Against it:
- B1 — within error, 1.00 ± 0.27
- B3 — within error, 0.88 ± 0.09
- B4 — within error, 0.99 ± 0.19
- B5 — within error, 0.98 ± 0.14
- B6 — lower, 0.82 ± 0.01
- B7 — within error, 0.91 ± 0.04
- B8 — within error, 0.98 ± 0.06

same assay, conditions: storage at 4° C. for one week; ELISA binding to 3C12

Point of comparison: B7, “Stress resistance parameter, Temperature (° C.) 4” value 0.37 ± 0.07. Against it:
- B1 — higher, 0.72 ± 0.06
- B2 — higher, 0.69 ± 0.11
- B3 — the same, 0.37 ± 0.08
- B4 — higher, 0.65 ± 0.06
- B5 — within error, 0.28 ± 0.05
- B6 — within error, 0.32 ± 0.06
- B8 — within error, 0.34 ± 0.08

tested on: RSV F antibody (11A9); test: Binding of epitope II of RSV F antigen mutants by flow cytometry; conditions: epitope II, antibody 11A9
From the text: (§1) To investigate whether the RSV F antigen mutants have pre-fusion epitopes, an RSV pre-F antibody (3C12) (specifically binding to the RSV pre-F epitope […]) and an RSV F antibody (11A9) (binding to pre-F and post-F epitopes II) were detected by flow cytometry in this example, and RSV F protein mutants in the pre-F conformation were expected to bind to the antibodies tested.
(§2) • 293T cells (purchased from ATCC cell bank); RSV pre-F antibody (3C12), epitope […] (Novoprotein, Cat. No.: DA101); RSV F antibody (11A9), epitope II (Novoprotein, Cat. No.: DA091); • experimental groups: mRNA vaccines corresponding to the expressed antigens in Example 3;
(§3) • (1) Cell transfection: 293T cells were seeded at 1.3×10^5 cells/well in a 24-well plate. The next day, mRNA-LNP samples (containing 300 ng of mRNA) were added directly to the cells, and the mixture was uniformly mixed. • (2) Cell collection: The cells were taken out of the incubator after 16 h of transfection, the medium was pipetted off, 500 μL of 0.1% BSA solution was pipetted to wash the medium remaining in the well plate, taking care not to resuspend the cells, and the 0.1% BSA solution was pipetted off. 500 μL of 0.1% BSA solution was added to each well, and the cells were pipetted and transferred to a 1.5 mL centrifuge tube. • (3) Centrifugation: The cells were harvested by centrifugation at 400 g for 5 min at 4° C. in the dark, and the supernatant was discarded. • (4) Straining: 50.6 μL of RSV fluorescent antibody diluent was added to each of the control sample and the test samples to resuspend the cells, and the samples were incubated at 4° C. for 2 h in the dark. • (5) Cleaning: After the incubation was completed, 500 μL of 0.1% BSA solution was added to each tube, the cells were harvested by centrifugation at 400 g for 5 min at 4° C. in the dark, and the supernatant was discarded. This operation was repeated three times. • (6) Resuspension of cells: 200 μL of 0.1% BSA solution was added to each sample, and the cells were carefully pipetted to prepare a cell suspension. • (7) Detection on flow cytometer: The […] of RSV F mutants to antibodies were measured using flow cytometry, with 1×10^4 cells detected in each measurement.
(§4) The RSV pre-F antibody (3C12) used in this example specifically binds to the RSV pre-F epitope Φ, and the RSV F antibody (11A9) binds to the pre-F and post-F epitopes II. Whether the pre-fusion conformations of the RSV F mutants are stable can be further determined by detecting the binding of the epitope Φ and the epitope II on the mutants to corresponding epitopes of antibodies 3C12 and 11A9, respectively, by flow cytometry.

Point of comparison: B3, “RSV F antibody (11A9) Epitope II (%) binding rate” value 90.4%. Against it:
- B1 — lower, 90.1%
- B2 — higher, 94.3%
- B4 — higher, 92.5%
- B5 — lower, 83.4%
- B6 — lower, 86.7%
- B7 — higher, 91.0%
- B8 — higher, 94.8%

tested on: RSV pre-F antibody (3C12); test: Binding of epitope Φ of RSV F antigen mutants by flow cytometry; conditions: flow cytometry; epitope Φ, antibody 3C12
From the text: as §1, §2, §3, §4

Point of comparison: B6, “RSV pre-F antibody (3C12) Epitope Φ (%) binding rate” value 79.6%. Against it:
- B1 — higher, 82.1%
- B2 — higher, 89.3%
- B3 — higher, 84.5%
- B4 — higher, 83.9%
- B5 — higher, 79.8%
- B7 — higher, 82.5%
- B8 — higher, 86.1%

same assay, conditions: ratio of epitope Φ (3C12) to epitope II (11A9) binding rate

Point of comparison: B1, “Φ/II (%)” value 91.1%. Against it:
- B2 — higher, 94.7%
- B3 — higher, 93.5%
- B4 — lower, 90.7%
- B5 — higher, 95.7%
- B6 — higher, 91.8%
- B7 — lower, 90.7%
- B8 — lower, 90.8%
